As a reminder, the EC50 is the concentration at which the effect is half-maximal.

These results are taken from patent US20220089757A1 (ADAGENE PTE, published 2022).

Assay [1] has as its target T1, human CD137L peptide 02 (human, biotinylated (position not given)).
T1 construct: Synthesized as biotinylated peptide; identical to peptide 01 except that it lacks the C-terminal 5 residues
T1 peptide: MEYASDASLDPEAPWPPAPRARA
Nature of the assay: ELISA, IgG on CD137L peptide 02.

Assay [2] addresses T2, human CD137L peptide 01 (human, biotinylated (position not given)).
T2 construct: Synthesized as biotinylated peptide
T2 peptide: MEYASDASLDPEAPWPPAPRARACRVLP
Nature of the assay: ELISA, IgG on CD137L peptide 01. (ELISA stands for enzyme-linked immunosorbent assay.)

Assay [3] has as its target T3, full length human CD137L (human, UniProt P41273 1-254).
T3 construct: also called CD137 ligand; human CD137 ligand
Nature of the assay: immunofluorescence microscopy on fixed and permeabilized CHO-S-CD137L cells. Here is the method:
FIGS. 3A-3C show immunofluorescence staining of TY23557, TY23561, the Reference-1 and isotype control antibodies at the indicated concentrations. The positive control CHO-S-CD137L cell line and the negative control CHO-S cells were washed, fixed and permabilized in a similar fashion as in immunohistochemistry (IHC), followed by analysis through fluorescence microscopy. (FIG. 3A) CHO-S-CD137L cells were stained with TY23557 or TY23561 (0.4 nM or 40 nM). (FIG. 3B) CHO-S-CD137L cells were stained with Reference-1 (6.66 nM) or negative isotype control (40 nM). (FIG. 3C) CHO-S cells were stained with TY23557 (40 nM), TY23561 (40 nM), negative isotype control (40 nM) or Reference-1 (6.66 nM).
The specificity of the antibodies were further confirmed with immunofluorescence analysis. To that end, CHO-S and CHO-S-CD137L cells were cultured on cover slides overnight. Cells were washed with DPBS followed by fixing and permeabilizing with 2% (v/v) paraformaldehyde and 0.1% Triton X 100. Then the cells were incubated with TY23557, TY23561, negative isotype control and Reference-1 (positive control) for one hour at room temperature. After washing by 0.05% PBST, PE Goat anti-mouse IgG Fc were added and staining for one hour at room temperature. The samples were analyzed with fluorescent microscopy.

B1: TY23558 (antibody, V domains shown)
VH: EVQLVESGGGLVQPGGSLRLSCAASGYSISSGHYWSWIRQAPGKGLEWIGEIYHSGSTYYSPSLKSRVTISRDNSKNTLYLQLNSLRAEDTAVYYCAREGSDSYGGPDPFDIWGQGTLVTVSS
VL: DIQLTQSPSSLSASVGDRVTITCRARSTVSFPYLHWYQQKPGKAPKLLIYDASNLETGVPSRFSGSGSGTDFTLTISSLQPEDFATYYCQQSLEDPFTFGQGTKVEIKR
notes: Tested as IgG with Fc from mouse IgG2a, expressed in mammalian cells; also called TV23558
With B1, the results for the 50% effective concentration (EC50) in assay [1] and in assay [2] were 1.51 nM and 3.84 nM, respectively.

B2: TY23557 (antibody, V domains shown)
VH: EVQLVESGGGLVQPGGSLRLSCAASGFTFTGYGIHWVRQAPGKGLEWVSAISGSGGSTYYADSVKGRFTISRDNSKNTLYLQLNSLRAEDTAVYYCARGAYYGGSYYFDYWGQGTLVTVSS
VL: DIQLTQSPSSLSASVGDRVTITCRASESITSSYLAWYQQKPGKAPKLLIYDASSLESGVPSRFSGSGSGTDFTLTISSLQPEDFATYYCFQGSHYPPTFGQGTKVEIKR
notes: Tested as IgG with Fc from mouse IgG2a, expressed in mammalian cells
Regarding B2, the EC50 in assay [1] worked out at 6.77 nM; in assay [2] it was 10.1 nM. The binding result in assay [3] is given as “binds”.

B3: TY23561 (antibody, V domains shown)
VH: EVQLVESGGGLVQPGGSLRLSCAASGFSLSTSGVGVSWIRQAPGKGLEWLALIDWAGDKYYSPSLKSRLTISRDNSKNTLYLQLNSLRAEDTAVYYCARYGYSSYALDYWGQGTLVTVSS
VL: DIQLTQSPSSLSASVGDRVTITCRASQSVRGSYLAWYQQKPGKAPKLLIYAASTLQSGVPSRFSGSGSGTDFTLTISSLQPEDFATYYCQQYSSLWTFGQGTKVEIKR
notes: as for B2
Turning to B3, the values for the concentration giving a half-maximal response (EC50) in assay [1] and in assay [2] were 50 nM and 166 nM, respectively.

B4: TY23554 (antibody, V domains shown)
VH: EVQLVESGGGLVQPGGSLRLSCAASGYSITSGYYWAWIRQAPGKGLEWIGIINPNRGSTKYAQKFQGRVTISRDNSKNTLYLQLNSLRAEDTAVYYCARDGWALSGGYYYYYGLDVWGQGTLVTVSS
VL: DIQLTQSPSSLSASVGDRVTITCRASQDISSDLAWYQQKPGKAPKLLIYDASNLETGVPSRFSGSGSGTDFTLTISSLQPEDFATYYCQQYDAWPSTFGQGTKVEIKR
notes: as for B2
With B4, the results for the EC50 in assay [1] and in assay [2] were 1.59 nM and 3.13 nM, respectively.

B5: TY23555 (antibody, V domains shown)
VH: EVQLVESGGGLVQPGGSLRLSCAASGYSISSGHYWAWIRQAPGKGLEWVSVISGSGGSTYYADSVKGRFTISRDNSKNTLYLQLNSLRAEDTAVYYCARYRSGAFDYWGQGTLVTVSS
VL: DIQLTQSPSSLSASVGDRVTITCRASQSISRWLAWYQQKPGKAPKLLIYAASSLQSGVPSRFSGSGSGTDFTLTISSLQPEDFATYYCQQAYSIWTFGQGTKVEIKR
notes: as for B2
On to B5, for which the figures for the concentration giving a half-maximal response (EC50) in assay [1] and in assay [2] were 12.3 nM and 28.5 nM, respectively.

B6: TY23556 (antibody, V domains shown)
VH: EVQLVESGGGLVQPGGSLRLSCAASGYSITSGHYWGWIRQAPGKGLEWIGEIYHSGSTYYSPSLKSRVTISRDNSKNTLYLQLNSLRAEDTAVYYCTRGRYGLDYWGQGTLVTVSS
VL: DIQLTQSPSSLSASVGDRVTITCSASSSVGYVQWYQQKPGKAPKLLIYDASNRATGIPSRFSGSGSGTDFTLTISSLQPEDFATYYCQQYGSAPITFGQGTKVEIKR
notes: as for B2
B6: the concentration giving a half-maximal response (EC50) worked out at 0.48 nM in assay [1] and 0.66 nM in assay [2].

B7: TY23559 (antibody, V domains shown)
VH: EVQLVESGGGLVQPGGSLRLSCAASGYSISSGHYWAWIRQAPGKGLEWIGEIYHSGSTYYSPSLKSRVTISRDNSKNTLYLQLNSLRAEDTAVYYCTRGRYGLDYWGQGTLVTVSS
VL: DIQLTQSPSSLSASVGDRVTITCSASSSVSYVQWYQQKPGKAPKLLIYDASNRATGIPSRFSGSGSGTDFTLTISSLQPEDFATYYCQQYSTNPLTFGQGTKVEIKR
notes: as for B2
Take B7: the EC50 came to 0.65 nM in assay [1] and 1.03 nM in assay [2].

B8: TY23562 (antibody, V domains shown)
VH: EVQLVESGGGLVQPGGSLRLSCAASGYSISSGYHWDWIRQAPGKGLEWIGRINPNRGSTKYAQKFQGRVTISRDNSKNTLYLQLNSLRAEDTAVYYCAREFGAYWGQGTLVTVSS
VL: DIQLTQSPSSLSASVGDRVTITCRASQSVDFVGKSFLDWYQQKPGKAPKLLIYDASNLETGVPSRFSGSGSGTDFTLTISSLQPEDFATYYCQQRASWPLTFGQGTKVEIKR
notes: as for B2
B8: the EC50 was determined as 0.74 nM in assay [1] and 2.04 nM in assay [2].
